From patent publication US20260062488A1 (AbbVie / Abbott, published 2026)

Key:
rabbit α4β7 integrin = molecular target: T1, rabbit α4β7 integrin (rabbit); experiment: FACS, rabbit CD4+ T cells
T1 construct: whole, on cells; On rabbit PBMCs

[1] = molecular target: T2, cynomolgus FcγRIII extracellular domain protein (cynomolgus monkey, UniProt Q8SPW2 17-208); experiment: SPR (Biacore T200), FcγR captured, antibody injected
T2 construct: extracellular domain; also called Cyno FcγRIII

[2] = molecular target: T3, cynomolgus FcγRI extracellular domain protein (cynomolgus monkey); experiment: as above
T3 construct: extracellular domain; also called Cyno FcγRI

cynomolgus α4β7 integrin [3] = molecular target: T4, cynomolgus α4β7 integrin (cynomolgus monkey); experiment: FACS, cyno total CD4+ T cells
T4 construct: whole, on cells; On CHOK1-cα4β7 cells or cynomolgus blood lymphocytes; also called cα4β7; cyno α4β7

[4] = molecular target: T5, human FcγRIIc on CHO-K1 cells (human, UniProt P31995 43-323); experiment: flow cytometry on CHO-K1 cells expressing the receptor (curve FcgRIIC), monomeric antibody, F(ab')2 anti-human IgG AF647; N=1
T5 construct: whole, on cells
T5 sequence (looked up): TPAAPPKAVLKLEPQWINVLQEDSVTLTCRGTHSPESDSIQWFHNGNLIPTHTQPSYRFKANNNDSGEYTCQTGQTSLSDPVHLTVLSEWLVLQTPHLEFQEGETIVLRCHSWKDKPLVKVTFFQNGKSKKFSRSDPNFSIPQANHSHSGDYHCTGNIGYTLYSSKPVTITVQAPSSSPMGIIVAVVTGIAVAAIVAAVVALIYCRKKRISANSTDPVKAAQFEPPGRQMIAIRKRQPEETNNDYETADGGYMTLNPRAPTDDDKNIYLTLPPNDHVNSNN

cynomolgus α4β7 integrin [5] = molecular target: T4, cynomolgus α4β7 integrin; experiment: FACS, cyno CD4+ total
cynomolgus α4β7 integrin [6] = molecular target: T4, cynomolgus α4β7 integrin; experiment: FACS, cyno CD4+ memory T cells
FcgRIIIB NA2 = molecular target: T6, FcgRIIIB NA2 (human, UniProt O75015); experiment: flow cytometry on CHO-K1 cells expressing the receptor (curve FcgRIIIB NA2), monomeric antibody, F(ab')2 anti-human IgG AF647; N=1
T6 construct: cell surface, on engineered CHO-K1 cells; the list of molecules has only an FcγRIIIb on CHO-K1 cells without the allotype; also called human FcγRIIIb (NA2) on CHO-K1 cells

cynomolgus α4β7 integrin [7] = molecular target: T4, cynomolgus α4β7 integrin; experiment: FACS, cyno CD8+ naïve T cells
cynomolgus α4β7 integrin [8] = molecular target: T4, cynomolgus α4β7 integrin; experiment: FACS, cynomolgus lymphocytes
cynomolgus α4β7 integrin [9] = molecular target: T4, cynomolgus α4β7 integrin; experiment: FACS, cyno CD4+ memory
cynomolgus α4β7 integrin [10] = molecular target: T4, cynomolgus α4β7 integrin; experiment: FACS, cynomolgus CD4+ T cells
cynomolgus α4β7 integrin [11] = molecular target: T4, cynomolgus α4β7 integrin; experiment: FACS, cyno CD4+ naïve T cells
cynomolgus α4β7 integrin [12] = molecular target: T4, cynomolgus α4β7 integrin; experiment: FACS, cyno total CD8+ T cells
cynomolgus α4β7 integrin [13] = molecular target: T4, cynomolgus α4β7 integrin; experiment: binding, cynomolgus CD8+ memory T cells, summary table
cynomolgus α4β7 integrin [14] = molecular target: T4, cynomolgus α4β7 integrin; experiment: binding, cynomolgus CD4+ memory T cells, summary table
human α4β1 integrin = molecular target: T7, human α4β1 integrin (human, UniProt P05556 21-798); experiment: FACS on recombinant cells expressing human α4β1; N=1
T7 construct: whole, on cells; also called hα4β1

[15] = molecular target: T8, human FcγRIIIa (V176) on CHO-K1 cells (human, UniProt P08637 17-254); experiment: flow cytometry on CHO-K1 cells expressing the receptor (curve FcgRIIIA V176), monomeric antibody, F(ab')2 anti-human IgG AF647; N=1
T8 construct: whole, on cells; also called V158

cynomolgus α4β7 integrin [16] = molecular target: T4, cynomolgus α4β7 integrin; experiment: binding, cynomolgus lymphocytes, summary table
cynomolgus α4β7 integrin [17] = molecular target: T4, cynomolgus α4β7 integrin; experiment: FACS, cyno CD8+ total
cynomolgus α4β7 integrin [18] = molecular target: T4, cynomolgus α4β7 integrin; experiment: FACS, cyno CD4+ naïve
FcgRIIIB SH = molecular target: T9, FcgRIIIB SH (human, UniProt O75015); experiment: flow cytometry on CHO-K1 cells expressing the receptor (curve FcgRIIIB SH), monomeric antibody, F(ab')2 anti-human IgG AF647; N=1
T9 construct: cell surface, on engineered CHO-K1 cells; the list of molecules has only an FcγRIIIb on CHO-K1 cells without the allotype; also called human FcγRIIIb (SH) on CHO-K1 cells

[19] = molecular target: T10, cynomolgus FcγRIIa extracellular domain protein (cynomolgus monkey); experiment: SPR (Biacore), N = 1
T10 construct: extracellular domain; also called Cyno FcγRIIa

[20] = molecular target: T2, cynomolgus FcγRIII extracellular domain …; experiment: SPR (Biacore), N = 1
[21] = molecular target: T3, cynomolgus FcγRI extracellular domain …; experiment: SPR (Biacore), N = 1
[22] = molecular target: T11, cynomolgus FcγRIIb extracellular domain protein (cynomolgus monkey); experiment: SPR (Biacore), N = 1
T11 construct: extracellular domain; also called Cyno FcγRIIb

T2 sequence (Q8SPW2 17-208): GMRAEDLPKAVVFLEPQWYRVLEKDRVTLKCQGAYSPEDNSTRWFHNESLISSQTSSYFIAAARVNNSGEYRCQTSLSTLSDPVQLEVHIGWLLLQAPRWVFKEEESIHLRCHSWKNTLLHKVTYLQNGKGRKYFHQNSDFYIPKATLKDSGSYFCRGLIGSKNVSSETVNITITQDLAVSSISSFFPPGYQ
T8 sequence (P08637 17-254 F176V limits assumed): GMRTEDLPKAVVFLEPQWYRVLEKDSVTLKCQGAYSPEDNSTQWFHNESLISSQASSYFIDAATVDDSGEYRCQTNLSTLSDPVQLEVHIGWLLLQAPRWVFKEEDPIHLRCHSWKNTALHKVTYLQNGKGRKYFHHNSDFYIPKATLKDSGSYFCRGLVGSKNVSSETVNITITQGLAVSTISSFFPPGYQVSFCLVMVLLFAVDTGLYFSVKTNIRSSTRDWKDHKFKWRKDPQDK
T6 sequence (O75015 17-200 N65S limits assumed): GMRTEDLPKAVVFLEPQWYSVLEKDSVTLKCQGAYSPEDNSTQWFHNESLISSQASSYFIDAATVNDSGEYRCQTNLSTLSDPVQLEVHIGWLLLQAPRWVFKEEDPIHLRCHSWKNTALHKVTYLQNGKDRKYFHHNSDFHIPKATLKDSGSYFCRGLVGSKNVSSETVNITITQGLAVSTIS
T9 sequence (O75015 17-200 N65S/A78D limits assumed): as the sequence (O75015 17-200 N65S limits assumed) above, with A62D counted along it

B1: Ab-h1.9d-WT (antibody, human IgG1, kappa)
heavy: not shown
light: DIQMTQSPSSLSASVGDRVTITCHASQDISDNIGWLQQKPGKSFKLLIYHGTNLEDGVPSRFSGSGSGTDYTLTISSLQPEDFATYYCVQYAQFPWTFGGGTKVEIKRTVAAPSVFIFPPSDEQLKSGTASVVCLLNNFYPREAKVQWKVDNALQSGNSQESVTEQDSKDSTYSLSSTLTLSKADYEKHKVYACEVTHQGLSSPVTKSFNRGEC
notes: IgG1/kappa with D356E and L358M (EU); also called Anti-human α4β7 (AC-166667) hu IgG1/k WT mAb
**Q.** What does the source list for B1?
**A.** EC50 (rabbit α4β7 integrin): 0.097 nM; Kd [1]: 280 nM; Kd [2]: 12 nM; EC50 (cynomolgus α4β7 integrin [3]): 0.03 nM; binding result [4]: binds; EC50 (cynomolgus α4β7 integrin [5]): 0.03 nM; EC50 (cynomolgus α4β7 integrin [6]): 0.01 nM; binding result (FcgRIIIB NA2): binds; EC50 (cynomolgus α4β7 integrin [7]): 0.042 nM; EC50 (cynomolgus α4β7 integrin [8]): 0.062 nM; EC50 (cynomolgus α4β7 integrin [9]): 0.01 nM; EC50 (cynomolgus α4β7 integrin [10]): 0.03 nM; EC50 (cynomolgus α4β7 integrin [11]): 0.045 nM; EC50 (cynomolgus α4β7 integrin [12]): 0.035 nM; EC50 (cynomolgus α4β7 integrin [13]): 0.036 nM; EC50 (cynomolgus α4β7 integrin [14]): 0.01 nM; binding result (human α4β1 integrin): no binding (tested: about 70 (axis without unit)); binding result [15]: binds; EC50 (cynomolgus α4β7 integrin [16]): 0.062 nM; EC50 (cynomolgus α4β7 integrin [17]): 0.035 nM; EC50 (cynomolgus α4β7 integrin [18]): 0.045 nM; binding result (FcgRIIIB SH): binds; Kd [19]: 8200 nM; Kd [20]: 160 nM; Kd [21]: 1.4 nM; Kd [22]: 7100 nM
